Experimental data published in US20190016794A1 (Boehringer Ingelheim, published 2019).

Assays:
Test in all cases: cell-based or functional assay
human TNF-alpha [1] = target: T1, human TNF-alpha (human, UniProt P01375 77-233)
recombinant human IL23 [2] = target: T2, recombinant human IL23 (human, UniProt P29460 23-328)
T2 sequence 1: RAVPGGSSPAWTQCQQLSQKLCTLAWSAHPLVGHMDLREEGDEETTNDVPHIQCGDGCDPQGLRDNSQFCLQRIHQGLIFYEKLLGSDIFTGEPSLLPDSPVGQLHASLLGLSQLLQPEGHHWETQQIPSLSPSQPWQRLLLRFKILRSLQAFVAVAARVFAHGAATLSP
T2 sequence 2: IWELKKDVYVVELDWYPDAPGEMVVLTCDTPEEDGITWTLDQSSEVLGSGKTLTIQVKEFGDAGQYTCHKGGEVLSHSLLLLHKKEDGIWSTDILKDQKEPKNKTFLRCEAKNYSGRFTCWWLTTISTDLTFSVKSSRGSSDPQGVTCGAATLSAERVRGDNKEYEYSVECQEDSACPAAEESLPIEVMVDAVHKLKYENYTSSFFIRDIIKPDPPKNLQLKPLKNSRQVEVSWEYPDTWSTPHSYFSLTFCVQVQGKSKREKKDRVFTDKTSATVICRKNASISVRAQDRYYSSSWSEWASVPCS

[3] = target: T3, recombinant cynomolgus IL23 (cynomolgus)
T3 chain 1: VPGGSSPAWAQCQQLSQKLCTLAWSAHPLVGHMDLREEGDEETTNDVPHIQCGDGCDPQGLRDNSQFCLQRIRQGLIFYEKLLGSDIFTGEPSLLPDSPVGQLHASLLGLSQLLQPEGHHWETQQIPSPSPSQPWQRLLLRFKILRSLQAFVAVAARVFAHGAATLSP
T3 chain 2: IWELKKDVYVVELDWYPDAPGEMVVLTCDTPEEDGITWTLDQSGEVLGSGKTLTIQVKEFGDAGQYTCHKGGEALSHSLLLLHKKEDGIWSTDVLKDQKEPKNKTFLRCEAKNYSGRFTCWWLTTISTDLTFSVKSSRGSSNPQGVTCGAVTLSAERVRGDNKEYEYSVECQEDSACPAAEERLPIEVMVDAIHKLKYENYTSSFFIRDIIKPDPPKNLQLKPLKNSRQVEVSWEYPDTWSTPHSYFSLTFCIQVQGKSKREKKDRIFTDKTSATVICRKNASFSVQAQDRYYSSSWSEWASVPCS

human TNF-alpha [4] = target: T1, human TNF-alpha; remark: listed apart in the source
recombinant human IL23 [5] = target: T2, recombinant human IL23; remark: listed apart in the source
cynomolgus TNF-alpha = cynomolgus TNF-alpha (cynomolgus, UniProt P79337 77-233, limits assumed)
Sequence of cynomolgus TNF-alpha (P79337 77-233 limits assumed): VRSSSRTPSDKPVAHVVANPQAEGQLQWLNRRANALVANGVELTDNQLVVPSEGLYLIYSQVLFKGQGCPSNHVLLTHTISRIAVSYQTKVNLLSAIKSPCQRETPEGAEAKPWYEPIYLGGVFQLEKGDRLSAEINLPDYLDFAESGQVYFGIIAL

human TNF-alpha [6] = target: T1, human TNF-alpha; remark: listed apart in the source
human TNF-alpha [7] = target: T1, human TNF-alpha; remark: listed apart in the source
recombinant human IL23 [8] = target: T2, recombinant human IL23; remark: listed apart in the source
recombinant human IL23 [9] = target: T2, recombinant human IL23; remark: listed apart in the source

T1 sequence (P01375 77-233 limits assumed): as the sequence (P79337 77-233 limits assumed) above, with V37L, T44R, N72T, L138R counted along it

B1: Compound P (bispecific antibody)
chain 1: not shown
chain 2: EIVLTQSPATLSLSPGERATLSCRASQSVYSYLAWYQQKPGQAPRLLIYDASNRATGIPARFSGSGSGTDFTLTISSLEPEDFAVYYCQQRSNWPPFTFGPGTKVDIKGGGSGGGGQVQLVQSGAEVKKPGSSVKVSCKASGYTFTDQTIHWMRQAPGQGLEWIGYIYPRDDSPKYNENFKGKVTITADKSTSTAYMELSSLRSEDTAVYYCAIPDRSGYAWFIYWGQGTLVTVSSVEPKSSRTVAAPSVFIFPPSDEQLKSGTASVVCLLNNFYPREAKVQWKVDNALQSGNSQESVTEQDSKDSTYSLSSTLTLSKADYEKHKVYACEVTHQGLSSPVTKSFNRGEC
- TNF-IL8 Whole Blood IC50 (human TNF-alpha [1]): 0.29 nM
- TNF-IL8 Whole Blood IC90 (human TNF-alpha [1]): 0.42 nM
- huIL23 MSA IC50 (recombinant human IL23 [2]): 0.2 nM
- huIL23 MSA IC90 (recombinant human IL23 [2]): 1.4 nM
- CynoIL23 MSA IC50 [3]: 0.097 nM
- CynoIL23 MSA IC90 [3]: 1.5 nM
- Dual Phospho Jurkat-pNf-Kb IC50 (human TNF-alpha [4]): 290 pM
- Dual Phospho Jurkat-pNf-Kb IC90 (human TNF-alpha [4]): 340 pM
- Dual Phospho DB-pSTAT3 IC50 (recombinant human IL23 [5]): 340 pM
- Dual Phospho DB-pSTAT3 IC90 (recombinant human IL23 [5]): 630 pM
- HeLa IL8 Cyno-TNF IC50 (cynomolgus TNF-alpha): 0.21 nM
- HeLa IL8 Cyno-TNF IC90 (cynomolgus TNF-alpha): 0.81 nM
- HeLa IL8 Hi-Hu-TNF IC50 (human TNF-alpha [6]): 0.41 nM
- HeLa IL8 Hi-Hu-TNF IC90 (human TNF-alpha [6]): 0.81 nM
- HeLa IL8 Lo-Hu-TNF IC50 (human TNF-alpha [6]): 0.0092 nM
- HeLa IL8 Lo-Hu-TNF IC90 (human TNF-alpha [6]): 0.036 nM
- L929 TNF Cytotox IC50 (human TNF-alpha [7]): 0.0034 nM
- L929 TNF Cytotox IC90 (human TNF-alpha [7]): 0.014 nM
- hIL23 pSTAT3 DB assay IC50 (recombinant human IL23 [8]): 300 pM
- hIL23 pSTAT3 DB assay IC90 (recombinant human IL23 [8]): 620 pM
- IL23A pSTAT3 (MG) IC50 (recombinant human IL23 [9]): 69 pM
- IL23A pSTAT3 (MG) IC90 (recombinant human IL23 [9]): 480 pM

B2: Compound F (bispecific antibody)
chain 1: DIQMTQSPSSLSASVGDRVTITCKASRDVAIAVAWYQQKPGKVPKLLIYWASTRHTGVPSRFSGSGSRTDFTLTISSLQPEDVADYFCHQYSSYPFTFGSGTKLEIKGGGSGGGGQVQLVESGGGVVQPGRSLRLSCAASGFIFSSYAMHWVRQAPGNGLEWVAFMSYDGSNKKYADSVKGRFTISRDNSKNTLYLQMNSLRAEDTAVYYCARDRGIAAGGNYYYYGMDVWGQGTTVTVSSFNRGESASTKGPSVFPLAPSSKSTSGGTAALGCLVKDYFPEPVTVSWNSGALTSGVHTFPAVLQSSGLYSLSSVVTVPSSSLGTQTYICNVNHKPSNTKVDKRVEPKSCDKTHTCPPCPAPEAAGGPSVFLFPPKPKDTLYITREPEVTCVVVDVSHEDPEVKFNWYVDGVEVHNAKTKPREEQYNSTYRVVSVLTVLHQDWLNGKEYKCKVSNKALPAPIEKTISKAKGQPREPQVYTLPPSREEMTKNQVSLTCLVKGFYPSDIAVEWESNGQPENNYKTTPPVLDSDGSFFLYSKLTVDKSRWQQGNVFSCSVMHEALHNHYTQKSLSLSPGK
chain 2: EIVLTQSPATLSLSPGERATLSCRASQSVYSYLAWYQQKPGQAPRLLIYDASNRATGIPARFSGSGSGTDFTLTISSLEPEDFAVYYCQQRSNWPPFTFGPGTKVDIKGGGSGGGGQVQLVQSGAEVKKPGSSVKVSCKASGYTFTDQTIHWMRQAPGQGLEWIGYIYPRDDSPKYNENFKGKVTITADKSTSTAYMELSSLRSEDTAVYYCAIPDRSGYAWFIYWGQGTLVTVSSVEPKSSRTVAAPSVFIFPPSDEQLKSGTASVVCLLNNFYPREAKVQWKVDNALQSGNSQESVTEQDSKDSTYSLSSTLTLSKADYEKHKVYACEVTHQGLSSPVTKSFNRGEC
- TNF-IL8 Whole Blood IC50 (human TNF-alpha [1]): 0.31 nM
- TNF-IL8 Whole Blood IC90 (human TNF-alpha [1]): 0.45 nM
- huIL23 MSA IC50 (recombinant human IL23 [2]): 0.17 nM
- huIL23 MSA IC90 (recombinant human IL23 [2]): 2.3 nM
- CynoIL23 MSA IC50 [3]: 0.069 nM
- CynoIL23 MSA IC90 [3]: 1.5 nM
- Dual Phospho Jurkat-pNf-Kb IC50 (human TNF-alpha [4]): 280 pM
- Dual Phospho Jurkat-pNf-Kb IC90 (human TNF-alpha [4]): 760 pM
- Dual Phospho DB-pSTAT3 IC50 (recombinant human IL23 [5]): 360 pM
- Dual Phospho DB-pSTAT3 IC90 (recombinant human IL23 [5]): 980 pM
- HeLa IL8 Cyno-TNF IC50 (cynomolgus TNF-alpha): 0.19 nM
- HeLa IL8 Cyno-TNF IC90 (cynomolgus TNF-alpha): 0.74 nM
- HeLa IL8 Hi-Hu-TNF IC50 (human TNF-alpha [6]): 0.35 nM
- HeLa IL8 Hi-Hu-TNF IC90 (human TNF-alpha [6]): 0.66 nM
- HeLa IL8 Lo-Hu-TNF IC50 (human TNF-alpha [6]): 0.0079 nM
- HeLa IL8 Lo-Hu-TNF IC90 (human TNF-alpha [6]): 0.039 nM
- L929 TNF Cytotox IC50 (human TNF-alpha [7]): 0.0025 nM
- L929 TNF Cytotox IC90 (human TNF-alpha [7]): 0.01 nM
- hIL23 pSTAT3 DB assay IC50 (recombinant human IL23 [8]): 260 pM
- hIL23 pSTAT3 DB assay IC90 (recombinant human IL23 [8]): 600 pM
- IL23A pSTAT3 (MG) IC50 (recombinant human IL23 [9]): 90 pM
- IL23A pSTAT3 (MG) IC90 (recombinant human IL23 [9]): 650 pM
